Data from patent publication US20170174791A1 (RAMOT AT TEL AVIV UNIVERSITY, published 2017).

Molecular target: bovine serum albumin (BSA) (bovine, UniProt P02769 25-607)
Assay: ELISA, BSA-coated plate, goat-anti-human HRP detection

bovine serum albumin (BSA), sequence (P02769 25-607 limits assumed): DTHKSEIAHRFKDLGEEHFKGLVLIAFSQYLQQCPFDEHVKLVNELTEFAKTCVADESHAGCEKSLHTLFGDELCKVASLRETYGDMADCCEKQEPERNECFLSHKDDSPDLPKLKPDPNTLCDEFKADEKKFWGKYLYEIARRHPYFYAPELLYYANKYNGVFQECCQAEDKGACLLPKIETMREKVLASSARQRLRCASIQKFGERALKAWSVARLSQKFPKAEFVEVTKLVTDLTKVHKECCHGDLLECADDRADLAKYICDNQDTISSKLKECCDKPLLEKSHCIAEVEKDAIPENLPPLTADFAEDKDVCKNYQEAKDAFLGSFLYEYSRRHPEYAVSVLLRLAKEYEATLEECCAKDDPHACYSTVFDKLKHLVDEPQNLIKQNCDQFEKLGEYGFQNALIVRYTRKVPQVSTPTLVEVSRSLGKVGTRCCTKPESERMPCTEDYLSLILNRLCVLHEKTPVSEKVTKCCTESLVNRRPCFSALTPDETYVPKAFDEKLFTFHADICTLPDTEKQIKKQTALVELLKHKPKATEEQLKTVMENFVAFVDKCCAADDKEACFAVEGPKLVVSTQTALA

B1: T427-αPE (B11 clone) IgG (bispecific, CD30 and PE38) (bispecific antibody)
light 1: not shown
heavy 1: not shown
light 2: MDIVLTQPPSASGTPGQRVTISCSGTSSDVGNSNLVSWYQQLPGTAPKLLIYGNSNRPSGVPDRFSGSKSGTSASLAISGLRSEDEADYYCCSYAGTGSPDVFGTGTKLTVLGQPKAAPSVTLFPPSSEELQANKATLVCLISDFYPGAVTVAWKADSSPVKAGVETTTPSKQSNNKYAASSYLSLTPEQWKSHRSYSCQVTHEGSTVEKTVAPAECS
heavy 2: MEVQLLETGGGLVQPGGSLRLSCAASGFTFDNYAINWVRQAPGKGLEWVSGISWNSGSIGYADSVKGRFTISRDNSKNTLYLQMNSLRAEDTAVYYCARGAPHYGGRGEFDFWGQGTLVTVSSASTKGPSVFPLAPSSKSTSGGTAALGCLVKDYFPEPVTVSWNSGALTSGVHTFPAVLQSSGLYSLSSVVTVPSSSLGTQTYICNVNHKPSNTKVDKRVEPKSCDKTHTCPPCPAPELLGRPSVFLFPPKPKDTLMISRTPEVTCVVVDVSHEDPEVKFNWYVDGVEVHNAKTKPREEQYNSTYRVVSVLTVLHQDWLNGKEYKCKVSNKALPAPIEKTISKAKGQPREPQVCTLPPSREEMTKNQVSLSCAVKGFYPSDIAVEWESNGQPENNYKTTPPVLDSDGSFFLVSKLTVDKSRWQQGNVFSCSVMHEALHNHYTQKSLSLSPGK
notes: also called T427-αPE (bispecific)
- binding result: no binding
